The text below walks through data of the supplement of paper PMC10567573.

This series is described as follows: protein stability index of a GFP-peptide fusion (GPS, HEK-293T) (PSI 1-6); higher = more stable.
[1] abbreviates: treatment: DMSO, c terminus: a fixed tail appended.
Setting [2] is: treatment: MLN4924 1 uM, 8 h, c terminus: a fixed tail appended.

± gives the standard deviation.
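Note: 24-mer peptide tiles fused after GFP, lentivirally expressed, FACS-sorted into six equal bins by GFP/DsRed ratio, decoded by Illumina sequencing, PSI is the read-weighted mean bin number.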

Regarding GLNSSWVELPMNSSNGNDNGNGKN [BNIP3L], the protein stability index by setting is: under setting [1], 5.11 ± 0.42; under setting [2], 5.54 ± 0.2.

For the sequence GNAHLGYSLVTHIPAGARDIQIVE [ADAMTSL2], the protein stability index by setting is: under setting [1], 3.03 ± 0.34; under setting [2], 3.24 ± 0.13.

GNFDWEAIFDAGTLGGELGALEAL [FOXJ1]: the protein stability index by setting is: under setting [1], 4.15 ± 0.26; under setting [2], 4.17 ± 0.34.

With GPGIPPLMPGMPPGMPPPVPRPGI [ZNF207], the protein stability index reads like this: under setting [1], 4.29 ± 0.23; under setting [2], 4.35 ± 0.33.

In the case of GQSLLKDEALAIAALELLPRELFP [PRAME], the protein stability index is, setting by setting: under setting [1], 2.75 ± 0.41; under setting [2], 2.84 ± 0.36.

As to GQSVTAVGRIIAPLLSGVAQEVSP [MFSD9], the protein stability index was found to be 3.39 ± 0.19 under setting [1] and 3.44 ± 0.19 under setting [2].

In turn, GREVELKPYIAAHFDVLPTEFTLG [PTPRD] displayed a protein stability index under setting [1] of 3.01 ± 0.37 and a protein stability index under setting [2] of 3.

GRGAQGENERVRGLETGDWGGAPK [ZSWIM9] yielded a protein stability index under setting [1] of 5 ± 0.21 and a protein stability index under setting [2] of 4.98 ± 0.24.

For the sequence GRGAVVPGAGLRRPTYTPPSIMPQ [ZBTB22], the protein stability index worked out at 3.51 ± 0.3 under setting [1] and 3.74 ± 0.063 under setting [2].

Take GSGADSEPARHIFSFSWLNSLNE [TRIM55]: the protein stability index (treatment: DMSO, c terminus: native) worked out at 3.53 ± 0.41 and the protein stability index (treatment: MLN4924 1 uM, 8 h, c terminus: native) was 3.53 ± 0.26.

Regarding GSIEYSCPASNECEITKRRRKACQ [ESRRA], the protein stability index came to 4.88 ± 0.23 under setting [1] and 4.97 ± 0.25 under setting [2].

GSLRTLELGSESQGASESQAPGEE [HDAC6]: the protein stability index by setting is: under setting [1], 5.52 ± 0.29; under setting [2], 5.58 ± 0.22.

For the sequence GSRTPGRSELVEGCGWRCPEHGDR [TRIM14], the protein stability index is, setting by setting: under setting [1], 4.19 ± 0.3; under setting [2], 4.48 ± 0.074.

As for GSSETNLLQHLLEACGRCEEVPEA [PYCR3], the protein stability index reads like this: under setting [1], 3.74 ± 0.19; under setting [2], 4.19 ± 0.14.

Turning to GSSGASDQDTLAPLPHPGAAPWPM [DVL3], the protein stability index reads like this: under setting [1], 4.2 ± 0.15; under setting [2], 4.3 ± 0.09.

Regarding GSSSDNRTYRYSNRYCGGPGPPIT [DYRK1B], the protein stability index reads like this: under setting [1], 2.57 ± 0.42; under setting [2], 2.75 ± 0.19.

With GSVGAAICGLQQDEEVSSLTCDAL [CCND2], the protein stability index is, setting by setting: under setting [1], 4.54 ± 0.35; under setting [2], 4.63 ± 0.25.

GTASSGSSRLPQPSGAGKTVVGVP [ZC2HC1A]: the protein stability index by setting is: under setting [1], 4.74 ± 0.41; under setting [2], 4.72 ± 0.12.

GTATRQNNWPPLPSFCPVQPCFFQ [SCAMP3]: the protein stability index was determined as 2.42 ± 0.16 under setting [1] and 2.45 ± 0.19 under setting [2].

As for GTEEKKKLIRDFDEKQQEANETLA [VTI1B], the protein stability index by setting is: under setting [1], 5.57 ± 0.22; under setting [2], 5.51 ± 0.15.

Take GTWDDAFATFCGGLAANGALQRLD [LRRC45]: the protein stability index reads like this: under setting [1], 3.2 ± 0.052; under setting [2], 3.12 ± 0.28.

Consider GVDPQQKMELGIDLLAYGAKAELP [MYOZ1], for which the protein stability index was 3.95 ± 0.083 under setting [1] and 4.05 ± 0.16 under setting [2].

GVEIDEINVYGNTALHIACYNGQD [ANKRD44] registered a protein stability index under setting [1] of 3.58 ± 0.19 and a protein stability index under setting [2] of 3.55 ± 0.33.

Turning to GVGFATRKVAGMAKPNMIISVNGD [FABP4], the protein stability index reads like this: under setting [1], 3.02 ± 0.28; under setting [2], 3.04 ± 0.47.

With GVNPDQVEKIRKLPNTLLRKDKDV [ANKRD40], the protein stability index turned out to be 4.63 ± 0.35 under setting [1] and 4.73 ± 0.26 under setting [2].

GVRCNTPAMGLQKKLRLNGGRNPY [LOXL2]: the protein stability index under setting [1] worked out at 2.75 ± 0.12 and the protein stability index under setting [2] stood at 2.95 ± 0.34.

Turning to GVRIVSRGRTQLFSLNPRSGSLIT [PCDHGA10], the protein stability index by setting is: under setting [1], 2.08 ± 0.2; under setting [2], 2.21 ± 0.25.

As to GVRVSVPCPSTTCCRACSVSFSTG [BET1L], the protein stability index by setting is: under setting [1], 2.49 ± 0.38; under setting [2], 2.35 ± 0.31.

In the case of GVWAPPAPGFGEDVPNRLVDNIDM [BEX5], the protein stability index is, setting by setting: under setting [1], 4.52 ± 0.57; under setting [2], 4.25 ± 0.55.

As for GWGTVFSLESEEEEYPGITAEDSN [BCL2L13], the protein stability index reads like this: under setting [1], 5.05 ± 0.23; under setting [2], 5.03 ± 0.38.

Turning to GYDDDNHDYIVRSGERWLERYEID [DYRK1B], the protein stability index reads like this: under setting [1], 4.11 ± 0.27; under setting [2], 4.03 ± 0.22.

For the sequence GYSGTSDRIRFTVNRRISIVGFGL [BTBD1], the protein stability index by setting is: under setting [1], 2.83 ± 0.27; under setting [2], 2.87 ± 0.36.

Turning to HAEIIAWIRICRPGSIIGPQQHFL [CDC14A], the protein stability index came out at 3.91 ± 0.99 under setting [1] and 2.74 ± 1.6 under setting [2].

Regarding HAPGVPRILVGNRLHLAFKRQVPT [RAB40C], the protein stability index reads like this: under setting [1], 2.69 ± 0.17; under setting [2], 2.72 ± 0.13.

Regarding HDYIVRSGERWLERYEIDSLIGKG [DYRK1B], the protein stability index under setting [1] turned out to be 2.95 ± 0.49 and the protein stability index under setting [2] is 3.11 ± 0.38.

HEGKTDSERTDTAADGETTATEEL [EPB41L3]: the protein stability index reads like this: under setting [1], 5.65 ± 0.34; under setting [2], 5.51 ± 0.21.

Take HESEGGRTPLMKAARAGHVCTVQF [ANKRD17]: the protein stability index is, setting by setting: under setting [1], 2.71 ± 0.28; under setting [2], 2.6 ± 0.33.

As to HETESTSDKETDIDDRYGDLDSRT [CDS1], the protein stability index runs as follows: under setting [1], 5.42 ± 0.19; under setting [2], 5.6 ± 0.22.

In the case of HFRHPKRSVSLSMRKSGAMKKGGI [BNIP3L], the protein stability index is, setting by setting: under setting [1], 3.51 ± 0.36; under setting [2], 3.32 ± 0.35.

Turning to HHAKDSEGVEIMLGVCASGLLIYR [EPB41L3], the protein stability index reads like this: under setting [1], 2.12 ± 0.69; under setting [2], 2.14 ± 0.61.

With HHLPLPDNWKSQVEPETRAVIRWM [CPN1], the protein stability index by setting is: under setting [1], 2.62 ± 0.34; under setting [2], 2.77 ± 0.44.

As for HKSAFNDWFSGHLNFQIEHHLFPT [FADS1], the protein stability index amounted to 2.11 ± 0.18 under setting [1] and 2.07 ± 0.41 under setting [2].

The sequence HNNNNNCEENEQSLPPPAGLNSSW [BNIP3L] had a protein stability index under setting [1] of 4.96 ± 0.17 and a protein stability index under setting [2] of 5.09 ± 0.078.

Regarding HPRALPPDARPHRRPHELLPVGGR [HAGHL], the protein stability index is, setting by setting: under setting [1], 4.48 ± 0.12; under setting [2], 4.33 ± 0.23.

With HQDVPSQDDSKPTQRQFTILNFND [AASDHPPT], the protein stability index is, setting by setting: under setting [1], 4.59 ± 0.27; under setting [2], 4.76 ± 0.32.

With HQHEEIQNVRNHIHSCFSDVTCFL [ATL3], the protein stability index is, setting by setting: under setting [1], 2.26 ± 0.15; under setting [2], 2.26 ± 0.13.

As to HQLLEPIRDFEARKCPVHGKTMEL [TRIM29], the protein stability index under setting [1] was found to be 3.89 ± 0.17 and the protein stability index under setting [2] stood at 3.84 ± 0.17.

Take HQRDGTLGALHTSSKPTALPSASS [SASS6]: the protein stability index runs as follows: under setting [1], 4.57 ± 0.25; under setting [2], 4.55 ± 0.12.

As to HSKLTDREKTNICYLSFPDSNSGC [DENND6A], the protein stability index amounted to 3.32 ± 0.26 under setting [1] and 3.39 ± 0.3 under setting [2].

As for HSVTGFLCEPDPVHFSEAIEKFIR [ALG2], the protein stability index came to 2.8 ± 0.21 under setting [1] and 2.93 ± 0.26 under setting [2].

The sequence HTFKTRFTQPLLPAFTVWCGSFQV [FSD1] displayed a protein stability index under setting [1] of 3.1 ± 0.55 and a protein stability index under setting [2] of 2.69 ± 1.1.

The sequence HTHPSACQGQRLFEKLLQLTSQNI [PLD5] registered a protein stability index under setting [1] of 2.21 ± 0.21 and a protein stability index under setting [2] of 1.84 ± 0.37.

In the case of HVKFRSLSMVSECLFSLINGDDMF [MCOLN1], the protein stability index by setting is: under setting [1], 2.84 ± 0.45; under setting [2], 2.61 ± 0.45.

For HVLLEGEGLGQSLGNFKDDLLNVC [TRIM29], the protein stability index under setting [1] was 3.06 ± 0.041 and the protein stability index under setting [2] is 3.1 ± 0.17.

HVTLTLPPTQLEVNLEEIPGEGLL [C2CD2L]: the protein stability index was 4.07 ± 0.18 under setting [1] and 3.96 ± 0.42 under setting [2].

As for HVTNAMVLVNVLQAIYVIDFFWNE [DHCR7], the protein stability index stood at 3.08 ± 0.17 under setting [1] and 2.99 ± 0.34 under setting [2].

Consider HWACKRNHGQVVSYLLKSGADKEI [ANKRD40], for which the protein stability index by setting is: under setting [1], 2.59 ± 0.24; under setting [2], 2.66 ± 0.28.

In the case of HYAFRIFDFDDDGTLNREDLSRLV [CIB1], the protein stability index amounted to 2.55 ± 0.24 under setting [1] and 2.78 ± 0.31 under setting [2].

For HYDLLNLNGTKVAEGHKASFCLED [LOXL2], the protein stability index by setting is: under setting [1], 4.12 ± 0.5; under setting [2], 4.26 ± 0.34.

In the case of ICDLARSIDFNKDGHIDINEFLEA [PPEF2], the protein stability index is, setting by setting: under setting [1], 3.6 ± 0.31; under setting [2], 4.04 ± 0.21.

With IDYYESKIRKIHTQRQYKEDESQS [CEP70], the protein stability index amounted to 4.08 ± 0.084 under setting [1] and 4.2 ± 0.1 under setting [2].

Regarding IEAGAHMDATNAFKKTAYELLDEK [FEM1A], the protein stability index reads like this: under setting [1], 4.79 ± 0.21; under setting [2], 5.04 ± 0.34.

With IEDLRAQIFANTVDNARIVLQIDN [KRT18], the protein stability index is, setting by setting: under setting [1], 2.6 ± 0.24; under setting [2], 2.67 ± 0.35.

Consider IETEPTVHHLPLSTEKVVQETVLV [EPB41L3], for which the protein stability index is 4 ± 0.11 under setting [1] and 3.84 ± 0.28 under setting [2].

For IETLRLAKNYIWALSEILRIGKRP [NEUROD6], the protein stability index reads like this: under setting [1], 3.08 ± 0.73; under setting [2], 2.65 ± 0.57.

For the sequence IFCRDTQTVFQKKNLQQTTNTTST [IQUB], the protein stability index is, setting by setting: under setting [1], 3.32 ± 0.34; under setting [2], 3.66 ± 0.26.

In the case of IFIIQACRGNQHDVPVIPLDVVDN [CASP6], the protein stability index is, setting by setting: under setting [1], 2.71 ± 0.59; under setting [2], 2.49 ± 0.7.

Regarding IGGVATVVCQPNEFIMPDSAVVGD [SEPHS2], the protein stability index by setting is: under setting [1], 3.72 ± 0.34; under setting [2], 3.76 ± 0.44.

Regarding IGIPLFFLELAVGQRIRRGSIGVW [SLC6A17], the protein stability index turned out to be 2.51 ± 0.34 under setting [1] and 2.28 ± 0.23 under setting [2].

With IGVAGNHWDGYSKGVNRKLGRTGL [FUT8], the protein stability index runs as follows: under setting [1], 3.1 ± 0.16; under setting [2], 2.9 ± 0.18.

In the case of IHDALLEAVTCGNTEVPARNLYAY [PTPRD], the protein stability index came out at 2.29 ± 0.35 under setting [1] and 2.39 ± 0.14 under setting [2].

In turn, IHSHHDGVLRPTVRPGTPPDFILK [CTDNEP1] registered a protein stability index under setting [1] of 3.66 ± 0.18 and a protein stability index under setting [2] of 3.72 ± 0.21.
